# Target: T1, FLAG-tagged GSK3β (UniProt P49841 1-420)
# T1 construct: glycogen synthase kinase-3β, expressed from a plasmid; also called FLAG-GSK3β; source: HEK-293, co-transfected, in lysate
# Experiment: co-IP; HEK-293 co-transfected with HA-TGase 2 and FLAG-GSK3β at increasing TGase 2:GSK3β plasmid ratios; TGase 2-GSK3β and GSK3β-β-catenin association followed
# Settings: partners not purified
# T1 sequence (P49841 whole entry): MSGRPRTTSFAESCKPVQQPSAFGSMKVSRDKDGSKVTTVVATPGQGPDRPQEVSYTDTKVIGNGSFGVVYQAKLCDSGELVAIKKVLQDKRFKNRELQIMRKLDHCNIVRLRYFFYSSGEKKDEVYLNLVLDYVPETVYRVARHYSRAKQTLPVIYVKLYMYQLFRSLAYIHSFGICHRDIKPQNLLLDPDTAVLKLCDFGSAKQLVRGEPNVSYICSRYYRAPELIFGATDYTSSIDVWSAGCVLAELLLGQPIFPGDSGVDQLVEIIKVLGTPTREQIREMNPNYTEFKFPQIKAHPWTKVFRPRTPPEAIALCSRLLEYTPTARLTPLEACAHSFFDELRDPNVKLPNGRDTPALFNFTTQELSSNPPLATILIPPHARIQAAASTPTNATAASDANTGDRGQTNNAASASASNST
binder,measurement,value
"HA-tagged wild-type TGase 2 (enzyme, UniProt P21980 1-687, looked up, transglutaminase 2, wild type, expressed from a TGM2 plasmid; also called HA-tagged wild-type TGM2; HA-tagged TGase 2; source: HEK-293, co-transfected, in lysate) MAEELVLERCDLELETNGRDHHTADLCREKLVVRRGQPFWLTLHFEGRNYEASVDSLTFSVVTGPAPSQEAGTKARFPLRDAVEEGDWTATVVDQQDCTLSLQLTTPANAPIGLYRLSLEASTGYQGSSFVLGHFILLFNAWCPADAVYLDSEEERQEYVLTQQGFIYQGSAKFIKNIPWNFGQFEDGILDICLILLDVNPKFLKNAGRDCSRRSSPVYVGRVVSGMVNCNDDQGVLLGRWDNNYGDGVSPMSWIGSVDILRRWKNHGCQRVKYGQCWVFAAVACTVLRCLGIPTRVVTNYNSAHDQNSNLLIEYFRNEFGEIQGDKSEMIWNFHCWVESWMTRPDLQPGYEGWQALDPTPQEKSEGTYCCGPVPVRAIKEGDLSTKYDAPFVFAEVNADVVDWIQQDDGSVHKSINRSLIVGLKISTKSVGRDEREDITHTYKYPEGSSEEREAFTRANHLNKLAEKEETGMAMRIRVGQSMNMGSDFDVFAHITNNTAEEYVCRLLLCARTVSYNGILGPECGTKYLLNLNLEPFSEKSVPLCILYEKYRDCLTESNLIKVRALLVEPVINSYLLAERDLYLENPEIKIRILGEPKQKRKLVAEVSLQNPLPVALEGCTFTVEGAGLTEEQKTVEIPDPVEAGEEVKVRMDLLPLHMGLHKLVVNFESDKLKAVKGFRNVIIGPA","percent decrease of the interaction with GSK3β (of β-catenin, by the legend) at TGase 2:GSK3β plasmid ratio 1:1",52%
same,"percent decrease of the interaction with GSK3β (of β-catenin, by the legend) at TGase 2:GSK3β plasmid ratio 1:2",45%

# From paper PMC12876850 (Cell Death & Disease, 2026)
